Paper PMC6529630 (mBio, 2019)

Columns and labels:
[1] = target: T1, GlnA4 (gamma-glutamylethanolamide synthetase) (Streptomyces coelicolor, UniProt O88070); assay: HPLC/ESI-MS detection of reaction product of purified His-GlnA4; assay type: biochemical
T1 construct: His-GlnA4
T1 sequence (O88070 1-462): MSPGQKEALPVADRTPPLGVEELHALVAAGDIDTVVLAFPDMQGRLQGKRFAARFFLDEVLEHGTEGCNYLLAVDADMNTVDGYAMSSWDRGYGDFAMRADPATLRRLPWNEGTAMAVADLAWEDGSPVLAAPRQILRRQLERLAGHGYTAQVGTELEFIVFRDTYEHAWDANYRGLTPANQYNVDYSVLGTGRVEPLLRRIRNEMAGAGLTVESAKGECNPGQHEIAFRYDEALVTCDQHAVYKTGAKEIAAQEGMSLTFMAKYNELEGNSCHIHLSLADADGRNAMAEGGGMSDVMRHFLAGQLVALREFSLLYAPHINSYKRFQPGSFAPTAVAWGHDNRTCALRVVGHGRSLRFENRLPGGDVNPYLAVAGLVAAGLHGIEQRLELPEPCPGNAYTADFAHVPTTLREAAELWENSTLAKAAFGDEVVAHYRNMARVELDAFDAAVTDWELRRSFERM

[2] = target: T1, GlnA4 (gamma-glutamylethanolamide synthetase); assay: Pi-release inhibition assay with purified His-GlnA4, Ki from IC50 (Cheng-Prusoff); weak; assay type: biochemical
[3] = substrate: NCCO; assay: purified protein; conditions: ATP, Mg2+ (MgCl2)
[4] = substrate: N[C@@H](CCC(=O)O)C(=O)O; assay: purified protein; conditions: ATP, Mg2+ (MgCl2)
[5] = substrate: Nc1ncnc2c1ncn2[C@@H]1O[C@H](COP(=O)(O)OP(=O)(O)OP(=O)(O)O)[C@@H](O)[C@H]1O; assay: Pi-release enzyme kinetics with purified His-GlnA4; assay type: biochemical, Streptomyces coelicolor; conditions: Mg2+ (MgCl2)

N[C@@H](CCC(=O)NCCO)C(=O)O [gamma-glutamylethanolamide]
HPLC/ESI-MS detection of reaction product of purified His-GlnA4 [1]: GlnA4 is a functional gamma-glutamylethanolamide synthetase that uses glutamate and ethanolamine as substrates to generate gamma-glutamylethanolamide

CS(=N)(=O)CC[C@H](N)C(=O)O (some centres unmarked) [methionine sulfoximine]
Ki [2]: ~11 mM

B1: GlnA4 (gamma-glutamylethanolamide synthetase) (Streptomyces coelicolor A3(2)) (protein)
chain: MSPGQKEALPVADRTPPLGVEELHALVAAGDIDTVVLAFPDMQGRLQGKRFAARFFLDEVLEHGTEGCNYLLAVDADMNTVDGYAMSSWDRGYGDFAMRADPATLRRLPWNEGTAMAVADLAWEDGSPVLAAPRQILRRQLERLAGHGYTAQVGTELEFIVFRDTYEHAWDANYRGLTPANQYNVDYSVLGTGRVEPLLRRIRNEMAGAGLTVESAKGECNPGQHEIAFRYDEALVTCDQHAVYKTGAKEIAAQEGMSLTFMAKYNELEGNSCHIHLSLADADGRNAMAEGGGMSDVMRHFLAGQLVALREFSLLYAPHINSYKRFQPGSFAPTAVAWGHDNRTCALRVVGHGRSLRFENRLPGGDVNPYLAVAGLVAAGLHGIEQRLELPEPCPGNAYTADFAHVPTTLREAAELWENSTLAKAAFGDEVVAHYRNMARVELDAFDAAVTDWELRRSFERM
notes: His-GlnA4
Km [3]: 470 µM | Km [4]: 85410 µM | Km [5]: 2500 µM
